Laboratory results: US20090131308A1 (AGOS BIOTECH, published 2009)
Positions of bridges follow the written chain, without caps; N, C: chain ends. No end group written: not given here.

Target: T1, soluble EGFR (amino acids 1-621) (UniProt P00533 25-645)
T1 construct: range 1-621; Amine-coupled to a CM-5 chip on flowcell 3; also called soluble ErbB1; ErbB-1
Assay: BIAcore 3000, receptor amine-coupled to CM-5 chip, peptide injected
Protocol: Biosensor analyses were performed using a BIAcore™ 3000. A CM-5 (research grade) sensor chip was immobilized with soluble EGFR (amino acids 1-501), soluble EGFR (amino acids 1-621) and soluble ErbB2 (amino acids 1-509) on flowcells 2, 3 and 4, respectively. Immobilizations were performed using amine coupling chemistry in 10 mM Sodium Acetate at pH 4.2. Varying concentrations (1.25 μM, 2.5 μM, 5 μM and 10 μM) of peptides were injected (30 μl) over the sensor surfaces in HBS running buffer (10 mM HEPES, 3.4 mM EDTA, 0.15M NaCl, 0.005% Tween 20, pH 7.4) at a flow rate of 5 μl/min. The surfaces were then regenerated by injecting 10 μl of 10 mM NaOH at a flow rate of 20 μl/min. The resulting sensor curves were subtracted against the blank channel (Flowcell 1) to yield the specific response.

B1: Human NRG2 (1-32) (peptide)
peptide: GHARKCNETAKSYCVNGGVCYYIEGINQLSCK-OH
modifications: disulfide 14-20, 6-31; N-terminus assumed
SMILES: CC[C@H](C)[C@@H]1NC(=O)CNC(=O)[C@H](CCC(=O)O)NC(=O)[C@H]([C@@H](C)CC)NC(=O)[C@H](Cc2ccc(O)cc2)NC(=O)[C@H](Cc2ccc(O)cc2)NC(=O)[C@@H]2CSSC[C@H](NC(=O)[C@H](Cc3ccc(O)cc3)NC(=O)[C@H](CO)NC(=O)[C@H](CCCCN)NC(=O)[C@H](C)NC(=O)[C@H]([C@@H](C)O)NC(=O)[C@H](CCC(=O)O)NC(=O)[C@H](CC(N)=O)NC(=O)[C@@H](NC(=O)[C@H](CCCCN)NC(=O)[C@H](CCCNC(=N)N)NC(=O)[C@H](C)NC(=O)[C@H](Cc3c[nH]cn3)NC(=O)CN)CSSC[C@@H](C(=O)N[C@@H](CCCCN)C(=O)O)NC(=O)[C@H](CO)NC(=O)[C@H](CC(C)C)NC(=O)[C@H](CCC(N)=O)NC(=O)[C@H](CC(N)=O)NC1=O)C(=O)N[C@@H](C(C)C)C(=O)N[C@@H](CC(N)=O)C(=O)NCC(=O)NCC(=O)N[C@@H](C(C)C)C(=O)N2
notes: V8 digestion and mass spectrometry indicate C1-C4 and C2-C3 disulfide bridges; also called hNRG2 (1-32); hNRG2(1-32)
Q: Does B1 bind?
A: no binding (tested: up to 10 uM)
